Results taken from US20050147555A1 (BRACCO SUISSE, published 2005).
Positions of bridges follow the written chain, without caps; N, C: chain ends. Groups on a side chain read outwards from the residue. Chains are numbered I, II in the order given. No end group written: not given here. *: point of attachment. Biotin = O=C1N[C@H]2[C@H](CS[C@H]2CCCCC(=O)*)N1; fluorescein = fluorescein label on a side chain; AEEA = NCCOCCOCC(=O)O

Columns and labels:
[1] = target: T1, Soluble KDR receptor (UniProt P35968 20-764, limits assumed); assay: SPR (Biacore 3000), soluble KDR on CM5 chip; ratio of the KD of monomer P9 to the apparent KD of the tail-to-tail dimer
T1 construct: Immobilised by amine coupling, RL 12721
Description: (§1) Soluble KDR receptor was cross-linked to the dextran surface of a CM5 sensor chip by the standard amine coupling procedure. […] For association, peptides were injected at 20 μL/min for 2 minutes using the kinject program. Following a 3 minute dissociation period, any remaining peptide was stripped from the KDR surface with a quickinject of 50 mM NaOH, 1M NaCl for 15 s at 75 μL/min. […] Sensorgrams were analyzed by global analysis using BIAevaluation software 3.1.
By design, the interaction of a dimeric peptide with KDR is expected to proceed through two kinetic steps.

[2] = target: T1, Soluble KDR receptor; assay: SPR (Biacore 3000), soluble KDR on CM5 chip; apparent KD
Description: as §1

[3] = target: T1, Soluble KDR receptor; assay: Biacore
Description: as §1

[4] = target: T1, Soluble KDR receptor; assay: SPR (Biacore 3000), soluble KDR on CM5 chip; column kd,1, by the text the predominant off-rate kd,2
Description: as §1

[5] = target: T1, Soluble KDR receptor; assay: SPR (Biacore 3000), soluble KDR on CM5 chip; ka,1 (initial encounter)
Description: as §1

[6] = target: T1, Soluble KDR receptor; assay: SPR (Biacore 3000), soluble KDR on CM5 chip; column kd,1, by the text the predominant off-rate kd,2; predominant off-rate (kd,2 by the text) printed under the head kd,1
Description: as §1

[7] = target: T1, Soluble KDR receptor; assay: SPR (Biacore 3000), soluble KDR on CM5 chip; ratio of the KD of monomer P10 to the apparent KD of the head-to-head dimer
Description: as §1

[8] = target: T2, KDR (VEGFR-2, Flk-1), full-length receptor on cells (human, UniProt P35968 20-1356); assay: saturation binding of peptide/neutravidin-HRP complex, KDR- minus mock-transfected 293H cells
T2 construct: whole, on cells; endogenous on HUVECs in the functional assays; also called VEGF receptor 2
Description: After incubation at room temperature, plates were transferred to 4° C. for another half-hour incubation. Subsequently, cells were washed five times with ice-cold M199 media and 1× with ice-cold PBS (in that order). After the final wash, 100 μL of ice cold TMB solution (KPL, cat. # 50-76-00) was added to each well, and each plate was incubated for 30 minutes at 37° C. in an air incubator.
Therefore, absorbance on the Y-axis of FIG. 8 is differential absorbance (KDR minus mock) and not the absolute absorbance.

[9] = target: T3, KDR-Fc (chimeric fusion of Ig Fc region with human KDR, R&D Systems #357-KD-050) (human, UniProt P35968 20-764); assay: fluorescence polarisation, monodentate peptide against KDRFc
T3 construct: Bought; also called KDR Fc fusion; not shown: Ig Fc region of the bought chimera
T3 sequence (P35968 20-764, stated change not applied): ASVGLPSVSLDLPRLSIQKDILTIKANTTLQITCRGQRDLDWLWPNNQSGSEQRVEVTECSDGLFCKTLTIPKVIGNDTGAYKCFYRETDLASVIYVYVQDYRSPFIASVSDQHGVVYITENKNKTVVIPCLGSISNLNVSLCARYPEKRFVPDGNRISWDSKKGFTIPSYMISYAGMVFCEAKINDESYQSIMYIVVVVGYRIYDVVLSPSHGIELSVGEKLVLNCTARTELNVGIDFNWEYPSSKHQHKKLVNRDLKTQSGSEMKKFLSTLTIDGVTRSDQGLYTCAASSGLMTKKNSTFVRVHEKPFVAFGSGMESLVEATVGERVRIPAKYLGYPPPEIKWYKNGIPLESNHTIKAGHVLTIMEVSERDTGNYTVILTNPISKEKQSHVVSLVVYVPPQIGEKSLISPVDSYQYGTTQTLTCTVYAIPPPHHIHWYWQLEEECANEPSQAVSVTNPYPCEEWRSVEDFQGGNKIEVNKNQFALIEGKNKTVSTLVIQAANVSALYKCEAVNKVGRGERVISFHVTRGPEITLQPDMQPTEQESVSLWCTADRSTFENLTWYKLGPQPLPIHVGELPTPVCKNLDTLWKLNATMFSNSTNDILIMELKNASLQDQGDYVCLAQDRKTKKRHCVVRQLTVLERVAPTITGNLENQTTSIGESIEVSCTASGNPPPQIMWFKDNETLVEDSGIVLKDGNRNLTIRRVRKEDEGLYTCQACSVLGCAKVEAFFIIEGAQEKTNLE

T1 sequence (P35968 20-764 limits assumed): as the sequence (P35968 20-764, stated change not applied) above
T2 sequence (P35968 20-1356): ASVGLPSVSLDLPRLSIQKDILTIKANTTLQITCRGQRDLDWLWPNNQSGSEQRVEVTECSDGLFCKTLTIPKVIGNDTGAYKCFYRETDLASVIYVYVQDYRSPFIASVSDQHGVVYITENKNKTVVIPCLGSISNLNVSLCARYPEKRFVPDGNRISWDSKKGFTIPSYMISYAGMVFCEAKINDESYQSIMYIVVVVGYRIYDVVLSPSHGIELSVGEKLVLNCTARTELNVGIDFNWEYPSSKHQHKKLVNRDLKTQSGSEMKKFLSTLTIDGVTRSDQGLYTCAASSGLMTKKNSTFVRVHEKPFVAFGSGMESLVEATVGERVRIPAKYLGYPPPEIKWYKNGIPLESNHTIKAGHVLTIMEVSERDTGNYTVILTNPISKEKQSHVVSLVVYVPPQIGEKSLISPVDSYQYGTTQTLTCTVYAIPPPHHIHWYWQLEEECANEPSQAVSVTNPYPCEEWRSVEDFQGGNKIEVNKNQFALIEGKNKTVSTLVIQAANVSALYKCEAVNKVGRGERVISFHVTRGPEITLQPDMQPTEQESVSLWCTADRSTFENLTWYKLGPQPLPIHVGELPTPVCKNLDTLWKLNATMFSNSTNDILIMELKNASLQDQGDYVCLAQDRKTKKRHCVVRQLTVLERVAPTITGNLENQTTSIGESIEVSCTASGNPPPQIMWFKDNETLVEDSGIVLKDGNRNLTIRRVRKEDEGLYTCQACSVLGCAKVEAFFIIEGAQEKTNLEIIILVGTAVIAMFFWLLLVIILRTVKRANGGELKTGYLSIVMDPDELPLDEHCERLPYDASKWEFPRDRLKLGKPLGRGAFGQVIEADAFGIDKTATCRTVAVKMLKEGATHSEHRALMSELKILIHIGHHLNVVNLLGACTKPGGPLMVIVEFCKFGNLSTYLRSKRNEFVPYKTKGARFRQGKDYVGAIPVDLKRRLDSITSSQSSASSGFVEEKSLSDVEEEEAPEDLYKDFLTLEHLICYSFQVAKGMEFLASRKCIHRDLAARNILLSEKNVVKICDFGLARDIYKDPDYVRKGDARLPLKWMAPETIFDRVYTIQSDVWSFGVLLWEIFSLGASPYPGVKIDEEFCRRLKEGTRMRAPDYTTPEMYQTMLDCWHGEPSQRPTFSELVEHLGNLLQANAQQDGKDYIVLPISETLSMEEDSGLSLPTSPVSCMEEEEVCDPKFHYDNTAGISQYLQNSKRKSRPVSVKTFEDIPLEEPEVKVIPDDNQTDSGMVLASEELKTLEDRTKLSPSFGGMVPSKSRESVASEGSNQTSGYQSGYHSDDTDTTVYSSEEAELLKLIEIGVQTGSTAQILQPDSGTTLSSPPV

B1: Tail-to-tail dimer of P9 and P10 (peptide)
peptide 1: Ac-AQEPEGYAYWEVITLYHEEDGDGGK-NH2
peptide 2: Ac-AQAFPRFGGDDYWIQQYLRYTDGGK-NH2
modifications: bridge I:25-II:25; not fully specified (bridges); printed as Ac-AQEPEGYAYWEVITLYHEEDGDGGK(Ac-AQAFPRFGGDDYWIQQYLRYTDGGK(—(O═)C(CH2CH2O)4CH2CH2NHC(═O)CH2CH2C(CH3)═NOCH2C(═O)NH(CH2CH2O)4CH2CH2C(═O)—)NH2)NH2; also: tail-to-tail dimer of two peptides joined through the Lys25 side chains
notes: also called T-T dimer; D31
fold increase in affinity over monomer P9 [1]: > 60 fold | Kd [2]: 11.1 nM | Kd [3]: 11 nM | koff [4]: 0.00128 s⁻¹ | kon [5]: 115000 M⁻¹ s⁻¹

B2: Head-to-head dimer of P9 and P10 (peptide)
peptide 1: AQEPEGYAYWEVITLYHEEDGDGG
peptide 2: AQAFPRFGGDDYWIQQYLRYTDGG
modifications: not fully specified; N-terminal amino group carries an NH-PEG4-CO linker and amino-oxyacetyl group, oxime-linked to the other chain; N-terminal amino group carries an NH-PEG4-CO linker and levulinyl group, oxime-linked to the other chain
notes: also called H-H dimer
koff [6]: 0.000249 s⁻¹ | Kd [2]: 2.24 nM | kon [5]: 111000 M⁻¹ s⁻¹ | fold increase in affinity over monomer P10 [7]: > 560 fold

B3: P6-XB (4X) on neutravidin-HRP (other)
peptide: Ac-GDSRVCWEDSWGGEVCFRYDPGGGK([AEEA-AEEA-Biotin])-NH2
modifications: disulfide 6-16; also: four peptides bound to neutravidin-HRP
notes: Peptides held on the four biotin sites of neutravidin-HRP; also called tetrameric P6-XB; P6-XB Tetramer
Kd [8]: 10 nM

B4: P12, monodentate peptide measured by FP (peptide)
peptide: AGPTWCEDDWYYCWLFGTGGGK(fluorescein)-NH2
modifications: disulfide 6-13 (inferred)
Kd [9]: 3 nM
